The values that follow are results of earlier work, collected in PMC4409539 (Cancer gene therapy, 2015).

In data set [1] the test system is pancreatic tumor cells. The note with it: pancreatic tumor cells infected at 25 pfu/cell with bCD.
For data set [2] the following is noted: yCD versus bCD.

As for bacterial cytosine deaminase [bCD], in data set [1], the 5-FC conversion was 0.2 to 0.7 pmol/min/mg.

B1: yeast cytosine deaminase (protein, UniProt Q12178 1-158, looked up)
Cytosine deaminase: MVTGGMASKWDQKGMDIAYEEAALGYKEGGVPIGGCLINNKDGSVLGRGHNMRFQKGSATLHGEISTLENCGRLEGKVYKDTTLYTTLSPCDMCTGAIIMYGIPRCVVGENVNFKSKGEKYLQTRGHEVVVVDDERCKKIMKQFIDERPQDWFEDIGE
B1: in data set [2], the “Km for 5-FC, fold lower than bCD” value is recorded as 22 fold and the “thermal stability compared with bCD” value is recorded as “more thermolabile than bCD”.
